5 molecules from patent US20190353661A1 (VANDERBILT UNIVERSITY, published 2019) can be followed below.

Holding throughout (test): Phadia diagnostics and/or Western blot
In experiment [1] the target is T1, Peanut allergen Ara h 6 (peanut, UniProt Q647G9 22-145).
T1 sequence (looked up): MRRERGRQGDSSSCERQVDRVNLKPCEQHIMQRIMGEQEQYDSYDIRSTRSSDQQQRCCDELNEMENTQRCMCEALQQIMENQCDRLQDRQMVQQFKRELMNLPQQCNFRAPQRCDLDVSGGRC

Experiment [2] addresses T2, Dust mite allergen Der p 1 (dust mite (Dermatophagoides …, UniProt P08176 99-320)).
T2 sequence (looked up): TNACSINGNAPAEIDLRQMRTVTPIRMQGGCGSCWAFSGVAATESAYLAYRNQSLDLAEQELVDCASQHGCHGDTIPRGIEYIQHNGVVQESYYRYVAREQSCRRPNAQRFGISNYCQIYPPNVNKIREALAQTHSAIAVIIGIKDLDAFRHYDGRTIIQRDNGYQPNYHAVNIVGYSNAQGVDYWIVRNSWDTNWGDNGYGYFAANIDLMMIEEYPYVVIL

The target in experiment [3] is T3, Aspergillus fumigatus allergen Asp f 1 (Aspergillus fumigatus, UniProt P67875 28-176).
T3 sequence: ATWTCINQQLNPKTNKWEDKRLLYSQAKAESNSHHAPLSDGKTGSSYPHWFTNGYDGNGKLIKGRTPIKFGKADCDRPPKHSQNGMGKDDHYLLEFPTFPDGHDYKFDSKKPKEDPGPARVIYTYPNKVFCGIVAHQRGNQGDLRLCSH

Experiment [4] deals with T4, Cat allergen Fel d 1 (cat, UniProt P30438 23-92; P30440 18-109).
T4 sequence (looked up) 1: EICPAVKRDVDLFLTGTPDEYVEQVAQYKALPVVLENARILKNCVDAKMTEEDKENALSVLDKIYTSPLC
T4 sequence (looked up) 2: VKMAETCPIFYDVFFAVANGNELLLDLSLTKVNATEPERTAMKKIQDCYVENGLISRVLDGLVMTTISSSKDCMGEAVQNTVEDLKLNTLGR

B1: Human IgE mAb 1A8 (antibody, V domains shown)
VH: QLQLQESGPGLVKPSETLSLTCSVSDDSISTPSYFWTWIRQPPGKGLEWIASIYYTGTTYYNPSLKSRVTLSVDTPKRQFFLRLSSVTAADTAVYYCARYLDYVWLRAFDVWGQGAMVTVSS
VL: EIVLTQSPATLSLSPGERATLSCRASPSVGRFLAWYQQKPGQAPRLLIYDASQRATDIPARFSASGSGTDFTLTIDSLEPEDFAIYYCQHRSNWPVTFGGGTRVEIK
notes: Natural human IgE from a hybridoma
In the case of B1, the binding result in experiment [1] is “binds”.

B2: Human IgE mAb 8F3 (antibody, V domains shown)
VH: QLQLQESGPGLVKPSETLSLTCTVSDASIDTPSYFWSWIRQPPGKGLEWIGSIYYTGNKYSNPSLKSRVTMSVDTPKRQFSLRLSSVTAADTAVYYCARYVDYVWLRAFDIWGQGTRVTVSS
VL: EIVLTQSPATLSLSPGERATLSCRASPSAGRFLAWYQQRPGQAPRLLIYDASKRATDTPARFSGSGSGTDFNLTIASLEPEDFAVYYCQHRSNWPLTFGGGTKVEIK
notes: as for B1
For the molecule B2, in experiment [1], the binding result was “binds”.

B3: Human IgE mAb 1C14 (antibody, V domains shown)
VH: QVQLQESGPGLVKPSQTLSLTCTVSGGSISSGGFFWGWIRQHPGRDLEWIGYIFYTGSTNYNPSLKNRVTLSVDTSKNHFSLNLTSVTVADTAVYYCARQGGVRGNYYFMDVWGKGTTVTVSS
VL: DIQMTQSPSSLSASVGDRVTITCRASQSISNYLNWYQQKPGKAPKLLIYAASRLQSGVPSRFSGSGSGTELTLTISSLQPEDFATYFCQQSYNTPYSFGQGTKVEIK
notes: as for B1
Take B3: in experiment [2], the binding result was “binds”.

B4: Human IgE mAb 14H4 (antibody, V domains shown)
VH: EVQLVQSGAEVKRAGESLKISCKGSGYPFATYWVGWVRQMPGKGLEWMTIIYPEDSDTRYSPSFQDHVTISADKSLSTAYLQWSSLKASDTAMYYCARVSRYYYDSRSYYPDAFDIWGQGTMVTVSS
VL: SYELTQPPSVSVSPGQTASITCSGDKLGDKYVCWYQQKPGRSPVLVVHQDTKRPSGIPERFSGSNSGDTATLTISGTQAMDEADYYCQAWDSTIGVFGPGTRVTVL
notes: as for B1
For the molecule B4, the binding result in experiment [3] is “binds”.

B5: Human IgE mAb 1B7 (antibody, V domains shown)
VH: EFQLQESGPGLVKPSETLSLNCSVSGGSISNNYWNWIRQPPGKGLEWIGYISYSGRTHYNPSLKSRVSISLHTSKNHFSLKLTSVAAADTAMYYCARESTYSYKLGDAFDIWGQGTMVTVSA
VL: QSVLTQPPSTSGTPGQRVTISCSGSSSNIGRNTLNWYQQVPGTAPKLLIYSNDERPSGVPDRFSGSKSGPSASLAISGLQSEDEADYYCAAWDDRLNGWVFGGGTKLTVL
Take B5: in experiment [4], the binding result was “binds”.
